We go through 32 sequences from the Immune Epitope Database (IEDB).

Targets include HLA-A*02:02; HLA-A*02:03; HLA-A*02:06.
Common to all, as to experiment: IEDB peptide-MHC binding, purified MHC/competitive/radioactivity; filed as Kd, often an IC50 or EC50 that approximates it; ≥ and ≤ were set here for values at or beyond the usual limits of such assays
In another test the target is HLA-A*03:01. The conditions noted are these: source organism: Vaccinia virus WR.
For another test, the target named is HLA-A*11:01. The conditions noted are these: source organism: Vaccinia virus WR.
A further test deals with HLA-A*31:01. As to conditions: source organism: Vaccinia virus WR.
In the next test the target is HLA-A*33:01. As to conditions: source organism: Vaccinia virus WR.
A further test has as its target HLA-A*68:01. The conditions noted are these: source organism: Vaccinia virus WR.
[1] abbreviates: source organism: SARS coronavirus Tor2.
Where [2] appears, read: source organism: Vaccinia virus WR.

The Kd is the concentration at which binding is half-saturated. Regarding LVFLILCFT, the equilibrium dissociation constant (Kd) was determined as 2490 nM with HLA-A*02:02 (setting [1]), 1850 nM in the test with HLA-A*02:03 (setting [1]) and 1370 nM with HLA-A*02:06 (setting [1]).
With LVKDESIQL, the dissociation constant (Kd) with HLA-A*02:02 (setting [2]) came out at 122 nM; with HLA-A*02:03 (setting [2]), 649 nM; with HLA-A*02:06 (setting [2]), 1400 nM.
In the same order, the values of MQKFTILEYL are 164 nM, 279 nM and 909 nM.
In the same order, the values of NILMDSIFV are 252 nM, 223 nM and 170 nM.
In the same order, the values of NLCKYLRGHT are at least 39600 nM, 8040 nM and at least 69800 nM.
As to NLVQYRILPM, the Kd is 3990 nM with HLA-A*02:02 (setting [2]), 1330 nM in the test with HLA-A*02:03 (setting [2]) and at least 24500 nM in the test with HLA-A*02:06 (setting [2]).
The matching figures for NVSGVPHSV: 825 nM, 24 nM and 278 nM.
The matching figures for PTDMLKLFT: at least 29100 nM, at least 47000 nM and at least 69200 nM.
In the same order, the values of QIGGEAIFLI are 8.19 nM, 0.201 nM and 14.8 nM.
Take QVLQQNNSFI: the dissociation constant (Kd) amounted to 544 nM in the test with HLA-A*02:02 (setting [2]), 3180 nM with HLA-A*02:03 (setting [2]) and 2320 nM in the test with HLA-A*02:06 (setting [2]).
With RAFIYSIMET, the Kd worked out at 81.4 nM with HLA-A*02:02 (setting [2]), 69.7 nM with HLA-A*02:03 (setting [2]) and 578 nM in the test with HLA-A*02:06 (setting [2]).
As to RILGAGCFV, the Kd in the test with HLA-A*02:02 (setting [1]) is 24.4 nM; with HLA-A*02:03 (setting [1]), 53.3 nM; with HLA-A*02:06 (setting [1]), 38 nM.
For SAVFKDSFL, the dissociation constant Kd with HLA-A*02:02 (setting [2]) was found to be 231 nM; with HLA-A*02:03 (setting [2]) it was 536 nM; in the test with HLA-A*02:06 (setting [2]), 1140 nM.
In the same order, the values of SICLDYIIV are 1460 nM, 8650 nM and 689 nM.
Regarding SISEINEWL, the dissociation constant (Kd) in the test with HLA-A*02:02 (setting [2]) is 0.129 nM; with HLA-A*02:03 (setting [2]), 1.84 nM; with HLA-A*02:06 (setting [2]), 6.29 nM.
In the same order, the values of STVDVRNIV are 6330 nM, 3480 nM and 1630 nM.
For TAYIGTSNWT, the Kd worked out at 1770 nM with HLA-A*02:02 (setting [2]), 1050 nM with HLA-A*02:03 (setting [2]) and 220 nM in the test with HLA-A*02:06 (setting [2]).
The matching figures for TIDKSSPLYI: 387 nM, 12.3 nM and 1820 nM.
The matching figures for TLNEYKQLYT: 144 nM, 773 nM and at least 69800 nM.
In the same order, the values of TMKAIEKDRL are 171 nM, 1060 nM and at least 69800 nM.
Consider TVPTNDHIPV, for which the Kd in the test with HLA-A*02:02 (setting [2]) came out at 1680 nM; with HLA-A*02:03 (setting [2]), 1890 nM; with HLA-A*02:06 (setting [2]), 515 nM.
In the same order, the values of VASDVCKKNL are at least 50900 nM, at least 70400 nM and at least 69800 nM.
In the same order, the values of VLALYSPPLI are 15.7 nM, 101 nM and 868 nM.
VLTLATGPV: in the test with HLA-A*02:03 (source organism: Dengue virus 4 Philippines/H241/1956), the dissociation constant (Kd) is 24.9 nM.
In the case of VTTNNLLEQL, the Kd came to 4690 nM with HLA-A*02:02 (setting [2]), 17900 nM in the test with HLA-A*02:03 (setting [2]) and 5910 nM in the test with HLA-A*02:06 (setting [2]).
In the case of WLSSKGLACY, the Kd in the test with HLA-A*03:01 was 418 nM; with HLA-A*11:01, at least 28900 nM; with HLA-A*31:01, 19500 nM; with HLA-A*33:01, at least 58600 nM; with HLA-A*68:01, at least 28300 nM.
As for WLTPFEKEFT, the equilibrium dissociation constant (Kd) with HLA-A*02:02 (setting [2]) was 2370 nM; with HLA-A*02:03 (setting [2]), 1550 nM; with HLA-A*02:06 (setting [2]), at least 30800 nM.
In the case of YFTFGDTALY, the dissociation constant (Kd) with HLA-A*03:01 is 9010 nM; in the test with HLA-A*11:01 it was 6400 nM; in the test with HLA-A*31:01, at least 48000 nM; with HLA-A*33:01 it was at least 45300 nM; with HLA-A*68:01, 49.9 nM.
Consider YIPPCQCTV, for which the Kd in the test with HLA-A*02:02 (setting [2]) turned out to be 196 nM; with HLA-A*02:03 (setting [2]), 445 nM; with HLA-A*02:06 (setting [2]) it was 92.5 nM.
On to YLRNYMVIK, for which the dissociation constant (Kd) with HLA-A*03:01 was 1.34 nM; with HLA-A*11:01, 897 nM; with HLA-A*31:01 it was 35 nM; with HLA-A*33:01, 930 nM; in the test with HLA-A*68:01, 1670 nM.
For the sequence YTRPEIDVL, the Kd with HLA-A*02:02 (setting [2]) was 115 nM; in the test with HLA-A*02:03 (setting [2]), 73.6 nM; with HLA-A*02:06 (setting [2]), 154 nM.
For YVKNGTKGK, the Kd is 2080 nM with HLA-A*03:01; 875 nM with HLA-A*11:01; at least 72100 nM with HLA-A*31:01; at least 65500 nM with HLA-A*33:01; 39.3 nM with HLA-A*68:01.
